Experimental data as given in US20170253670A1 (Hoffmann-La Roche, published 2017).
Read-outs that look alike come from different tables or passages of the source.

Assays:
[1] = molecular target: T1, human FolR1 on cells (HeLa, SKOV3, HT-29, transfected HEK) (human, UniProt P15328 25-234); test: cell-based or functional assay
[2] = molecular target: T1, human FolR1 on cells (HeLa, SKOV3, …); test: flow cytometry, HeLa cells
Experimental: (§1) Target cells as indicated were harvested with Cell Dissociation Buffer, washed with PBS and resuspended in FACS buffer. The antibody staining was performed in a 96well round bottom plate. Therefore 200′000 cells were seeded per well. The plate was centrifuged for 4 min at 400 g and the supernatant was removed. The test antibodies were diluted in FACS buffer and 20 μl of the antibody solution were added to the cells for 30 min at 4° C.

[3] = molecular target: T1, human FolR1 on cells (HeLa, SKOV3, …); test: cell-based or functional assay; remark: listed apart in the source
[4] = molecular target: T2, MUC1 SEA-avi-His, biotinylated (human, biotin on avi tag); test: SPR (ProteOn XPR36), biotinylated MUC1 on NLC chip, TCB as analyte
T2 construct: E. coli derived; also called MUC1 antigen; SEA domain of human MUC1
T2 chain: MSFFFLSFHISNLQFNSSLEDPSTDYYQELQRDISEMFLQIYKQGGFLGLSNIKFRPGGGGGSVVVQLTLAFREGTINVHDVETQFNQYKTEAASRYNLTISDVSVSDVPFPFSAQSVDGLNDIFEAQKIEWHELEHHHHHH
Experimental: Binding of the produced MUC1-specific TCBs was measured by surface plasmon resonance using a ProteOn XPR36 instrument (Biorad) at 25° C. Biotinylated MUC1 antigen and an unrelated biotinylated antigen were immobilized on NLC chips by neutravidin capture. Immobilization of the antigens was performed as described before. […] Buffer (PBST) was injected along the sixth channel to provide an “in-line” blank for referencing.
Regeneration was performed in horizontal orientation using 10 mM Glycine, pH 1.5 at a flow rate of 100 ul/min for a contact time of 30 s.

[5] = molecular target: T3, human FolR1 monovalent Fc fusion, biotinylated (human, UniProt P15328 25-233, biotin on C-terminal Avi-tag ; biotin on the C-terminal Avi-tag of the Fc-knob chain (tag not in the letters)); test: SPR ProteOn, Fab analyte, antigen on chip
T3 construct: ECD linked to hinge of Fc-knob, co-expressed with Fc-hole; also called huFolR1; huFolR1-Fc; not shown: hinge-Fc(knob)-Avi-tag fused to the ECD, and the co-expressed Fc(hole) chain
Experimental: Immobilization of antigens (ligand): Recombinant antigens were diluted with PBST (10 mM phosphate, 150 mM sodium chloride pH 7.4, 0.005% Tween 20) to 10 μg/ml, then injected at 30 μl/minute in vertical orientation. Injection of analytes: For ‘one-shot kinetics’ measurements, injection direction was changed to horizontal orientation, two-fold dilution series of purified Fab (varying concentration ranges) were injected simultaneously along separate channels 1-5, with association times of 200 s, and dissociation times of 600 s. Buffer (PBST) was injected along the sixth channel to provide an “in-line” blank for referencing. Association rate constants (kₒₙ) and dissociation rate constants (koff) were calculated using a simple one-to-one Langmuir binding model in ProteOn Manager v3.1 software by simultaneously fitting the association and dissociation sensorgrams. The equilibrium dissociation constant (KD) was calculated as the ratio koff/kₒₙ.

[6] = molecular target: T4, cyno FolR1 on transiently transfected HEK cells (cynomolgus); test: flow cytometry on HEK cells transiently transfected with cyno FolR1, fluorescently labeled anti-human secondary antibody
T4 construct: whole, on cells; also called cyFolR1
Experimental: Cross-reactivity of the FolR1 antibodies to cyno FolR1 was addressed on HEK cells transiently transfected with cyFolR1 by flow cytometry. The antibodies were detected with a fluorescently labeled anti-human secondary antibody.
as §1

[7] = molecular target: T5, recombinant human BCMA Fc(kih) (human, UniProt Q02223 4-53, biotin on avi-tag where coupled to SA chip ; biotin on the avi-tag of the Fc-knob chain where coupled to the SA chip (tag not in the letters)); test: SPR Biacore, bivalent avidity, BCMA-Fc on chip (Experiment 2)
T5 construct: also called huBCMA Fc(kih); huBCMA; not shown: human IgG1 hinge-Fc(knob)-avi fused to the ECD, and the unfused Fc(hole) chain
T5 chain: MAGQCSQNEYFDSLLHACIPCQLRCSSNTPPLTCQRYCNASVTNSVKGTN
Experimental: (§2) Assessment of binding of anti-BCMA antibodies to recombinant BCMA by surface plasmon resonance (SPR) as follow. All SPR experiments were performed on a Biacore T200 at 25° C. with HBS-EP as running buffer (0.01 M HEPES pH 7.4, 0.15 M NaCl, 3 mM EDTA, 0.005% Surfactant P20, Biacore, Freiburg/Germany). The avidity of the interaction between anti-BCMA antibodies and recombinant BCMA Fc(kih) (human, cynomolgus and murine) was determined (Tables 38-40). Biotinylated recombinant human, cynomolgus and murine BCMA Fc(kih) were directly coupled on a SA chip following instructions (Biacore, Freiburg/Germany). The immobilization level ranged from 80 to 120 RU. […] The dissociation was monitored for 180 seconds. Bulk refractive index differences were corrected for by subtracting the response obtained on the reference flow cell. Here, the anti-BCMA antibodies were flown over an empty surface previously activated and deactivated as described in the standard amine coupling kit. Apparent kinetic constants were derived using the Biacore T200 Evaluation Software (v 1.0, Biacore AB, Uppsala/Sweden), to fit rate equations for 1:1 Langmuir binding by numerical integration, despite the bivalency of the interaction for comparison purposes.

[8] = molecular target: T5, recombinant human BCMA Fc(kih); test: SPR Biacore, bivalent avidity, BCMA-Fc on chip (Experiment 3)
Experimental: as §2

[9] = molecular target: T5, recombinant human BCMA Fc(kih); test: SPR Biacore, binder captured via anti-Fab, BCMA-Fc analyte
[10] = molecular target: T6, recombinant murine BCMA Fc(kih) (murine, UniProt O88472 2-49, biotinylated at the avi-tag of the Fc knob chain (not in the letters)); test: as above
T6 construct: also called muBCMA Fc(kih); not shown: human IgG1 hinge-Fc(knob)-avi and the unfused Fc(hole) chain
T6 chain: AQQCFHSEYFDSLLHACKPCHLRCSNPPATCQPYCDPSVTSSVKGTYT

[11] = molecular target: T1, human FolR1 on cells (HeLa, SKOV3, …); test: flow cytometry on HeLa cells, fluorescently labeled anti-human secondary antibody
[12] = molecular target: T1, human FolR1 on cells (HeLa, SKOV3, …); test: cell-based or functional assay; remark: listed apart in the source

T1 sequence (P15328 25-234): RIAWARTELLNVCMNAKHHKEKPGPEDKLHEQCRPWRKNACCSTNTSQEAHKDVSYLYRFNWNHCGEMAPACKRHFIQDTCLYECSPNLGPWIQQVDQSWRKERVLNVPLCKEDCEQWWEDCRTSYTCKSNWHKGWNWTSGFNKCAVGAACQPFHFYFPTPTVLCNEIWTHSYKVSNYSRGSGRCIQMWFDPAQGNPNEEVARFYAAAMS
T3 sequence (P15328 25-233 limits assumed): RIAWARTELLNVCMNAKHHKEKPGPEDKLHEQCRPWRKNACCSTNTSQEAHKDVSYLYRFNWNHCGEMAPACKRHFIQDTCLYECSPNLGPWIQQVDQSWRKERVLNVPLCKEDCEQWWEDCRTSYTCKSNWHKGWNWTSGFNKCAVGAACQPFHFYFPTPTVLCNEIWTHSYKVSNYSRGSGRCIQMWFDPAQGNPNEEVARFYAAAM

B1: Mov19 FolR1 TCB 2+1 inverted (bispecific antibody)
chain 1: not shown
chain 2: QVQLQQSGAELVKPGASVKISCKASGYSFTGYFMNWVKQSHGKSLEWIGRIHPYDGDTFYNQNFKDKATLTVDKSSNTAHMELLSLTSEDFAVYYCTRYDGSRAMDYWGQGTTVTVSSASTKGPSVFPLAPSSKSTSGGTAALGCLVKDYFPEPVTVSWNSGALTSGVHTFPAVLQSSGLYSLSSVVTVPSSSLGTQTYICNVNHKPSNTKVDKKVEPKSCDKTHTCPPCPAPEAAGGPSVFLFPPKPKDTLMISRTPEVTCVVVDVSHEDPEVKFNWYVDGVEVHNAKTKPREEQYNSTYRVVSVLTVLHQDWLNGKEYKCKVSNKALGAPIEKTISKAKGQPREPQVCTLPPSRDELTKNQVSLSCAVKGFYPSDIAVEWESNGQPENNYKTTPPVLDSDGSFFLVSKLTVDKSRWQQGNVFSCSVMHEALHNHYTQKSLSLSPGK
chain 3: DIELTQSPASLAVSLGQRAIISCKASQSVSFAGTSLMHWYHQKPGQQPKLLIYRASNLEAGVPTRFSGSGSKTDFTLNIHPVEEEDAATYYCQQSREYPYTFGGGTKLEIKRTVAAPSVFIFPPSDEQLKSGTASVVCLLNNFYPREAKVQWKVDNALQSGNSQESVTEQDSKDSTYSLSSTLTLSKADYEKHKVYACEVTHQGLSSPVTKSFNRGEC
For B1, the “EC50 killing 24 h, SKov-3” value [1] was 0.00075 nM and the “EC50 killing 48 h, SKov-3” value [1] was 0.05 pM.

B2: 9D11 FolR1 TCB 1+1 head-to-tail (crossfab) (bispecific antibody, V domains shown)
VH: QVQLVQSGAEVKKPGASVKVSCKASGYTFTSYYMHWVRQAPGQGLEWMGIINPSGGPTSYAQKFQGRVTMTRDTSTSTVYMELSSLRSEDTAVYYCARGDFAWLDYWGQGTLVTVSS
VL: not shown
notes: 1+1 head-to-tail with CD3 CrossFab on the same arm
For B2, the EC50 [2] was 44.2 nM and the “EC50 killing 24 h (pM), SKOV3” value [3] was 4.73 pM.

B3: 58D6 MUC1-specific CLC TCB (bispecific antibody)
heavy 1: not shown
heavy 2: not shown
light: QAVVTQEPSLTVSPGGTVTLTCGSSTGAVTTSNYANWVQEKPGQAFRGLIGGTNKRAPGTPARFSGSLLGGKAALTLSGAQPEDEAEYYCALWYSNLWVFGGGTKLTVLRTQPKAAPSVTLFPPSSEELQANKATLVCLISDFYPGAVTVAWKADSSPVKAGVETTTPSKQSNNKYAASSYLSLTPEQWKSHRSYSCQVTHEGSTVEKTVAPTECS
notes: also called 58D6 TCB
B3: binds [4].

B4: 110A5 MUC1-specific CLC TCB (bispecific antibody)
heavy 1: not shown
heavy 2: not shown
light: B3 light
notes: also called 110A5 TCB
B4: binds [4].

B5: 15H7 Fab (Fab, V domains shown)
VH: QVQLVQSGAEVKKPGASVKVSCKASGYTFTSYYMHWVRQAPGQGLEWMGIINPSGGSTSYAQKFQGRVTMTRDTSTSTVYMELSSLRSEDTAVYYCARNYYLFSTSFDYWGQGTLVTVSS
VL: QAVVTQEPSLTVSPGGTVTLTCGSSTGAVTTSNYANWVQEKPGQAFRGLIGGTNKRAPGTPARFSGSLLGGKAALTLSGAQPEDEAEYYCALWYSNLWVFGGGTKLTVL
notes: as m35
With B5 the Kd [5] was 13.4 nM.

B6: 21A5 IgG (antibody, V domains shown)
VH: not shown
VL: B5 VL
notes: human IgG1
For B6, the “EC50 (read off the curve)” value [6] was about 6 µg/mL.

B7: pSCHLI373 anti-BCMA IgG (antibody, V domains shown)
VH: EVQLVESGGGLVKPGGSLRLSCAASGFSFSNSWMNWVRQAPGKGLEWVGTIRQKTYGGTTDYAAPVKGRFTISRDDSKNTLYLQMNSLKTEDTAVYYCTTGGLFGYWDYWGQGTLVTVSS
VL: B5 VL
Work on B7 yielded a Kd [7] of 23 nM, a Kd [8] of 12.1 nM and a Kd [9] of 135 nM. The Kd [10] was 724 nM.

B8: 16D5 IgG (antibody, V domains shown)
VH: not shown
VL: B5 VL
notes: human IgG1
B8 was tested, and the “EC50 (read off the curve)” value [6] was about 7 µg/mL.

B9: 14E4 IgG (antibody, V domains shown)
VH: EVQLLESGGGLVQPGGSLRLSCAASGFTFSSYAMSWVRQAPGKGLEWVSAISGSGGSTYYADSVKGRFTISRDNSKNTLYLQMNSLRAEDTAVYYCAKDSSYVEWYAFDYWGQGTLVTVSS
VL: EIVLTQSPGTLSLSPGERATLSCRASQSVSSSYLAWYQQKPGQAPRLLIYGASSRATGIPDRFSGSGSGTDSTLTISRLEPEDFAVYYCQQPTSSPITFGQGTKVEIK
notes: human IgG1
B9: no binding (tested: 50 µg/ml) [11].

B10: 9D11 TCB S100aA (bispecific antibody, human IgG1, kappa, L234A L235A)
heavy 1: not shown
heavy 2: QVQLVQSGAEVKKPGASVKVSCKASGYTFTSYYMHWVRQAPGQGLEWMGIINPSGGPTSYAQKFQGRVTMTRDTSTSTVYMELSSLRSEDTAVYYCARGDFAWLDYWGQGTLVTVSSASTKGPSVFPLAPSSKSTSGGTAALGCLVKDYFPEPVTVSWNSGALTSGVHTFPAVLQSSGLYSLSSVVTVPSSSLGTQTYICNVNHKPSNTKVDKKVEPKSCDKTHTCPPCPAPEAAGGPSVFLFPPKPKDTLMISRTPEVTCVVVDVSHEDPEVKFNWYVDGVEVHNAKTKPREEQYNSTYRVVSVLTVLHQDWLNGKEYKCKVSNKALGAPIEKTISKAKGQPREPQVCTLPPSRDELTKNQVSLSCAVKGFYPSDIAVEWESNGQPENNYKTTPPVLDSDGSFFLVSKLTVDKSRWQQGNVFSCSVMHEALHNHYTQKSLSLSPGK
light 1: not shown
light 2: QAVVTQEPSLTVSPGGTVTLTCGSSTGAVTTSNYANWVQEKPGQAFRGLIGGTNKRAPGTPARFSGSLLGGKAALTLSGAQPEDEAEYYCALWYSNLWVFGGGTKLTVLSSASTKGPSVFPLAPSSKSTSGGTAALGCLVKDYFPEPVTVSWNSGALTSGVHTFPAVLQSSGLYSLSSVVTVPSSSLGTQTYICNVNHKPSNTKVDKKVEPKSC
B10 was tested, and the “EC50 killing 24 h, SKov-3” value [12] was 0.00194 nM.
